Target: purified B/Washington/02/2019 HA full ectodomain (wild type) fused with TEV cleavage motif, trimeris (influenza B virus B/Washington/02/2019 (B/Victoria)) (UniProt P22092)
Experiment: BLI (Octet Red), […], Fab CR9114 at 20 ug/ml; […]

**Q.** Which OCTET CR9114 30° C. response does the source give for fAb CR9114 here?
**A.** Its OCTET CR9114 30° C. response is 0.48 nm.

**Q.** And the OCTET Fab CR9114 response?
**A.** The OCTET Fab CR9114 response was 0.38 nm.
